# According to the supplement of paper PMC10567573:
# B1: RSPH3 (parent)
# chain: FIPAKTGKDVATQILEGELFDFDL
# Variants of: B1
# Experiment: protein stability index of a GFP-peptide fusion (GPS, HEK-293T) (PSI 1-6); higher = more stable
# Settings: c terminus: a fixed tail appended
# 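Further: lentivirally expressed fusions sorted by FACS into six bins by GFP to DsRed ratio, PSI derived from sequencing read proportions per bin multiplied by bin number.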
row,Variant,protein stability index
1,FIPAKDGKDVATQILEGELFDFDL [T6D],2.46
2,FIPAKWGKDVATQILEGELFDFDL [T6W],1.9
3,FIPAKGGKDVATQILEGELFDFDL [T6G],2.12
4,FIPAKRGKDVATQILEGELFDFDL [T6R],1.71
5,FIPAKIGKDVATQILEGELFDFDL [T6I],2.53
6,FIPAKHGKDVATQILEGELFDFDL [T6H],1.82
7,FIPAKFGKDVATQILEGELFDFDL [T6F],2.08
8,FIPAKYGKDVATQILEGELFDFDL [T6Y],1.64
9,FIPAKNGKDVATQILEGELFDFDL [T6N],1.91
10,FIPAKQGKDVATQILEGELFDFDL [T6Q],1.64
11,FIPAKEGKDVATQILEGELFDFDL [T6E],2.43
12,FIPAKAGKDVATQILEGELFDFDL [T6A],2
13,FIPAKTGKDVATQILEGELFDCDL [F22C],1.84
14,FIPAKTGKDVATQILEGELFDYDL [F22Y],2.12
15,FIPAKTGKDVATQILEGELFDPDL [F22P],1.82
16,FIPAKTGKDVATQILEGELFDQDL [F22Q],2.84
17,FIPAKTGKDVATQILEGELFDADL [F22A],2.31
18,FIPAKTGKDVATQILEGELFDHDL [F22H],2.56
19,FIPAKTGKDVATQILEGELFDDDL [F22D],3.7
20,FIPAKTGKDVATQILEGELFDEDL [F22E],3.2
21,FIPAKTGKDVATQILEGELFDKDL [F22K],2.74
22,FIPAKTGKDVATQILEGELFDTDL [F22T],2.67
23,FIPAKTGKDVATQYLEGELFDFDL [I14Y],2.47
24,FIPAKTGKDVATQELEGELFDFDL [I14E],2.09

row,Variant,protein stability index
1,FIPAKTGKDVATQMLEGELFDFDL [I14M],2.75
2,FIPAKTGKDVATQFLEGELFDFDL [I14F],1.74
3,FIPAKTGKDVATQHLEGELFDFDL [I14H],2.05
4,FIPAKTGKDVATQSLEGELFDFDL [I14S],1.41
5,FIPAKTGKDVATQRLEGELFDFDL [I14R],1.55
6,FDPAKTGKDVATQILEGELFDFDL [I2D],4.39
7,FVPAKTGKDVATQILEGELFDFDL [I2V],2.26
8,FYPAKTGKDVATQILEGELFDFDL [I2Y],2.96
9,FCPAKTGKDVATQILEGELFDFDL [I2C],1.55
10,FIPAKTRKDVATQILEGELFDFDL [G7R],1.82
11,FIPAKTAKDVATQILEGELFDFDL [G7A],1.83
12,FIPAKTIKDVATQILEGELFDFDL [G7I],1.96
13,FIPAKTQKDVATQILEGELFDFDL [G7Q],1.97
14,FIPAKTDKDVATQILEGELFDFDL [G7D],2.46
15,FIPAKTCKDVATQILEGELFDFDL [G7C],1.79
16,FIPAKTNKDVATQILEGELFDFDL [G7N],1.85
17,FIPAKTSKDVATQILEGELFDFDL [G7S],2.08
18,FIPAKTGKDVHTQILEGELFDFDL [A11H],1.8
19,FIPAKTGKDVLTQILEGELFDFDL [A11L],1.27
20,FIPAKTGKDVMTQILEGELFDFDL [A11M],1.53
21,FIPAKTGKDVYTQILEGELFDFDL [A11Y],4.25
22,FIPAKTGKDVSTQILEGELFDFDL [A11S],1.87
23,FIPAKTGKDVQTQILEGELFDFDL [A11Q],1.73
24,FIPAKTGKDVRTQILEGELFDFDL [A11R],2.2

row,Variant,protein stability index
1,FIPAKTGKDVATQILEGELFMFDL [D21M],2.98
2,FIPAKTGKDVATQILEGELFKFDL [D21K],1.96
3,FIPAKTGKDVATQILEGELFCFDL [D21C],2.71
4,FIPAKTGKDVATQILEGELFFFDL [D21F],2.45
5,FIPAKTGKDVATQILEGELFEFDL [D21E],1.49
6,FIPAKTGKDVATQILEGELFHFDL [D21H],1.79
7,PIPAKTGKDVATQILEGELFDFDL [F1P],4.33
8,TIPAKTGKDVATQILEGELFDFDL [F1T],4.34
9,LIPAKTGKDVATQILEGELFDFDL [F1L],3.56
10,KIPAKTGKDVATQILEGELFDFDL [F1K],4.24
11,GIPAKTGKDVATQILEGELFDFDL [F1G],4.84
12,QIPAKTGKDVATQILEGELFDFDL [F1Q],4.69
13,DIPAKTGKDVATQILEGELFDFDL [F1D],4.77
14,HIPAKTGKDVATQILEGELFDFDL [F1H],4.32
15,FIPAKTGKDVATQILEMELFDFDL [G17M],1.71
16,FIPAKTGKDVATQILEQELFDFDL [G17Q],2.26
17,FIPAKTGKDVATQILEVELFDFDL [G17V],2.75
18,FIPAKTGKDVATQILEDELFDFDL [G17D],1.75
19,FIPAKTGKDVATQILESELFDFDL [G17S],1.56
20,FIPAKTGKDVAVQILEGELFDFDL [T12V],2.98
21,FIPAKTGKDVAPQILEGELFDFDL [T12P],1.8
22,FIPAKTGKDVAYQILEGELFDFDL [T12Y],1.92
23,FIPAKTGKDVAWQILEGELFDFDL [T12W],3.27
24,FIPAKTGKDVALQILEGELFDFDL [T12L],2.18

row,Variant,protein stability index
1,FIPAKTGKDVACQILEGELFDFDL [T12C],2.02
2,FIPAKTGKDVAQQILEGELFDFDL [T12Q],1.92
3,FIPAKTGYDVATQILEGELFDFDL [K8Y],2.27
4,FIPAKTGSDVATQILEGELFDFDL [K8S],1.93
5,FIPAKTGCDVATQILEGELFDFDL [K8C],2.58
6,FIPAKTGEDVATQILEGELFDFDL [K8E],2.43
7,FIPAKTGHDVATQILEGELFDFDL [K8H],1.9
8,FIPAKTGMDVATQILEGELFDFDL [K8M],1.63
9,FIPAKTGFDVATQILEGELFDFDL [K8F],1.32
10,FIPAKTGLDVATQILEGELFDFDL [K8L],2.44
11,FIPAKTGKDSATQILEGELFDFDL [V10S],1.29
12,FIPAKTGKDKATQILEGELFDFDL [V10K],1.54
13,FIPAKTGKDNATQILEGELFDFDL [V10N],2.12
14,FIPAKTGKDHATQILEGELFDFDL [V10H],1.82
15,FIPAKTGKDEATQILEGELFDFDL [V10E],2.52
16,FIPAKTGKDIATQILEGELFDFDL [V10I],2.95
17,FIPAKTGKDGATQILEGELFDFDL [V10G],1.98
18,FIPAKTGKEVATQILEGELFDFDL [D9E],1.81
19,FIPAKTGKLVATQILEGELFDFDL [D9L],2.77
20,FIPAKTGKCVATQILEGELFDFDL [D9C],2.43
21,FIPAKTGKVVATQILEGELFDFDL [D9V],2.29
22,FIPAKTGKPVATQILEGELFDFDL [D9P],1.78
